Experiments:
FcγRIIIa 158F = FcγRIIIa 158F (UniProt P08637); test: biosensor with SA sensor, biotin-FcγRIIIa 158F loaded, antibody in solution
FcγRIIIa 158V = FcγRIIIa 158V (UniProt P08637); test: biosensor with SA sensor, biotin-FcγRIIIa 158V loaded, antibody in solution (7 concentrations, 2x gradient from 500 nM)
FcγRIIIa 158V, sequence (P08637 17-208 F176V): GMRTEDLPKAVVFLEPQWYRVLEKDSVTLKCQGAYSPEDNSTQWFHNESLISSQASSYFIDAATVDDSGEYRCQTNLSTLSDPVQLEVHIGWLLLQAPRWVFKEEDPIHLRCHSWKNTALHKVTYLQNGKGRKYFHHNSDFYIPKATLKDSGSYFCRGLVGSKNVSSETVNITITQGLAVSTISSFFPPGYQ

FcγRIIIa 158F, sequence (P08637 17-208 limits assumed): as the sequence (P08637 17-208 F176V) above, with V160F counted along it

Kd (FcγRIIIa 158F): 226 nM
Kd (FcγRIIIa 158V): 36.8 nM
Substance: Obinutuzumab (antibody)
